Measured values as given in the supplement of paper PMC10126150.
± gives the standard deviation of the averaged measurements.

test system: ATP; assay: switch fluorescence ratio, 500 uM ATP over buffer (Cy3 cluster intensity, sum of 5 cycles each) (fold (ratio)); higher = stronger signal-on switching upon ATP binding; sequences stand for … in TCGTCGGCAGCGTCAGATGTGTATAAGAGACAGTTTTTTTTTTTTTTTTTTTTTTTTT…TC; conditions: aptamer strand: ATP DNA aptamer (quencher-CACCTGGGGGAGTATTGCGGAGGAAGG + anchor), 100 nM annealed; ATP concentration: 500 uM
How it was run: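 The fluorescence ratio divides summed target-cycle Cy3 intensity by summed buffer-cycle Cy3 intensity for each cluster and is averaged per switch-domain sequence. Cy3-labelled switching-strand clusters on a modified Illumina MiSeq flow-cell were annealed to 100 nM quencher-labelled ATP aptamer, then imaged in selection buffer and again after 15 min with 500 uM ATP at 22 °C. Five such cycles were run, with NaOH stripping and re-annealing between them, and clusters outside 100-1000 RFU were excluded.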
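Note: ATP exposure 15 min at 22 °C before imaging.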

| Sequence | switch fluorescence ratio |
| --- | --- |
| ATTCCTAGAT | 1.002 ± 0.0091 |
| ATTCCTAGTG | 1.03 ± 0.035 |
| ATTCCTTGTA | 0.989 ± 0.039 |
| ATTCGACAGA | 1.02 ± 0.016 |
| ATTCGATAGT | 1.03 ± 0.018 |
| ATTCGATATC | 1.03 ± 0.012 |
| ATTCGATTTC | 1 ± 0.033 |
| ATTCGCGGAA | 1.02 ± 0.029 |
| ATTCGTGTAT | 0.977 ± 0.04 |
| ATTCTACCGC | 1.49 ± 0.08 |
| ATTCTGGGAT | 1.013 ± 0.0027 |
| ATTCTGTGTG | 0.9648 ± 0.0023 |
| ATTCTGTTTG | 0.987 ± 0.043 |
| ATTCTTAGTA | 0.986 ± 0.03 |
| ATTCTTCCGC | 3.88 ± 0.16 |
| ATTGAAAAAC | 1.03 ± 0.022 |
| ATTGAAAGCA | 1.03 ± 0.025 |
| ATTGAAAGTG | 0.9859 ± 0.0074 |
| ATTGAAATGG | 1.02 ± 0.044 |
| ATTGAATGGC | 1.04 ± 0.068 |
| ATTGAATGTA | 0.98 ± 0.016 |
| ATTGAATTCT | 1.02 ± 0.14 |
| ATTGACTCAG | 1.01 ± 0.012 |
| ATTGAGAGCA | 0.985 ± 0.021 |
| ATTGAGCAAA | 1.11 ± 0.056 |

| Sequence | switch fluorescence ratio |
| --- | --- |
| ATTGAGCGGA | 1.0358 ± 0.001 |
| ATTGAGCGTG | 1.01 ± 0.015 |
| ATTGAGTCAC | 0.991 ± 0.016 |
| ATTGAGTTGT | 0.947 ± 0.066 |
| ATTGATAGGG | 1.03 ± 0.037 |
| ATTGATATTG | 0.979 ± 0.011 |
| ATTGATGTA | 1.0136 ± 0.00015 |
| ATTGATTGAA | 1.01 ± 0.012 |
| ATTGATTTAT | 0.987 ± 0.045 |
| ATTGATTTGT | 0.975 ± 0.018 |
| ATTGATTTTC | 0.999 ± 0.024 |
| ATTGCCCTTA | 1.06 ± 0.071 |
| ATTGCGCTTC | 1.063 ± 0.0095 |
| ATTGCGGCAC | 1.05 ± 0.024 |
| ATTGCGGGGG | 0.994 ± 0.019 |
| ATTGCGGGTT | 0.981 ± 0.013 |
| ATTGGACCAT | 0.976 ± 0.036 |
| ATTGGAGGGC | 0.96 ± 0.038 |
| ATTGGATGGG | 0.997 ± 0.057 |
| ATTGGATTTT | 1 ± 0.028 |
| ATTGGCACT | 1.03 ± 0.018 |
| ATTGGCGGTT | 1.09 ± 0.1 |
| ATTGGCTTT | 0.9788 ± 0.0025 |
| ATTGGCTTTA | 1.004 ± 0.0034 |
| ATTGGGAAAG | 1.02 ± 0.041 |

| Sequence | switch fluorescence ratio |
| --- | --- |
| ATTGGGCACC | 0.998 ± 0.048 |
| ATTGGGCGCT | 0.99269 ± 2.5e-05 |
| ATTGGGCTTC | 1.01 ± 0.015 |
| ATTGGGGCGG | 0.9842 ± 0.0054 |
| ATTGGGGGGT | 0.988 ± 0.015 |
| ATTGGGGTGC | 0.992 ± 0.013 |
| ATTGGGTATG | 0.998 ± 0.044 |
| ATTGGGTTAG | 0.975 ± 0.032 |
| ATTGGGTTTC | 0.982 ± 0.021 |
| ATTGGGTTTG | 1.01 ± 0.021 |
| ATTGGTAACC | 1.01 ± 0.039 |
| ATTGGTATGA | 0.994 ± 0.018 |
| ATTGGTGACG | 1.02 ± 0.047 |
| ATTGGTGATT | 0.974 ± 0.038 |
| ATTGGTGGAG | 1.007 ± 0.0033 |
| ATTGTAAGTG | 1.03 ± 0.088 |
| ATTGTACAGG | 1.033 ± 0.0021 |
| ATTGTAGACC | 1.0225 ± 0.00081 |
| ATTGTAGTGC | 0.97 ± 0.021 |
| ATTGTATAAA | 1.04 ± 0.056 |
| ATTGTATTTA | 0.9842 ± 0.0079 |
| ATTGTCATGG | 0.999 ± 0.028 |
| ATTGTCGCCG | 1.02 ± 0.043 |
| ATTGTCGTTC | 1.027 ± 0.0098 |
| ATTGTCTTGA | 0.9688 ± 0.0015 |

| Sequence | switch fluorescence ratio |
| --- | --- |
| ATTGTGAGAC | 0.986 ± 0.01 |
| ATTGTGCTGA | 0.9481 ± 0.0073 |
| ATTGTGCTGT | 0.976 ± 0.043 |
| ATTGTGGATA | 0.95 ± 0.022 |
| ATTGTGGGAA | 0.9843 ± 0.0028 |
| ATTGTGGGAG | 0.972 ± 0.017 |
| ATTGTGGGTT | 1 ± 0.021 |
| ATTGTGTGGT | 1.01 ± 0.026 |
| ATTGTTCTGA | 1.01 ± 0.032 |
| ATTGTTGTTA | 0.98517 ± 0.00068 |
| ATTGTTTTGT | 0.987 ± 0.051 |
| ATTTAAAATC | 0.9614 ± 0.0045 |
| ATTTAACGAG | 1.01 ± 0.021 |
| ATTTAAGGGA | 0.982 ± 0.026 |
| ATTTAATACG | 1.02 ± 0.052 |
| ATTTAATTCG | 1.01 ± 0.022 |
| ATTTACCGGA | 1.04 ± 0.052 |
| ATTTACGAT | 1.02 ± 0.049 |
| ATTTACTATA | 1.07 ± 0.0053 |
| ATTTACTGCG | 1.01 ± 0.041 |
| ATTTACTTGT | 1.05 ± 0.094 |
| ATTTAGCGTC | 0.99 ± 0.016 |
| ATTTAGGATT | 1.01 ± 0.018 |
| ATTTAGGCGT | 1 ± 0.039 |
| ATTTAGGGAT | 1.02 ± 0.051 |

| Sequence | switch fluorescence ratio |
| --- | --- |
| ATTTAGGGCA | 1.02 ± 0.051 |
| ATTTAGGGGT | 1.02 ± 0.057 |
| ATTTAGGTAG | 1.02 ± 0.024 |
| ATTTAGGTGG | 1.02 ± 0.053 |
| ATTTAGGTTT | 1.01 ± 0.012 |
| ATTTAGTGGG | 0.993 ± 0.048 |
| ATTTATAGAT | 0.979 ± 0.028 |
| ATTTATATCA | 1.01 ± 0.024 |
| ATTTATATCC | 1.02 ± 0.013 |
| ATTTATGTTA | 0.985 ± 0.012 |
| ATTTATGTTG | 1.01 ± 0.031 |
| ATTTATTCCG | 1.01 ± 0.032 |
| ATTTCAAAAG | 0.974 ± 0.023 |
| ATTTCAGATA | 1.01 ± 0.02 |
| ATTTCAGGGA | 0.978 ± 0.024 |
| ATTTCAGTAA | 1.05 ± 0.027 |
| ATTTCAGTAG | 1.016 ± 0.0019 |
| ATTTCAGTTG | 1.011 ± 0.006 |
| ATTTCGGGGA | 0.997 ± 0.042 |
| ATTTCGGGTT | 1.11 ± 0.28 |
| ATTTCGTTCG | 0.977 ± 0.013 |
| ATTTCTAACT | 1.015 ± 0.0022 |
| ATTTCTCAAT | 1.01 ± 0.03 |
| ATTTCTCTCT | 0.993 ± 0.014 |
| ATTTCTTTTT | 1.03 ± 0.0055 |

| Sequence | switch fluorescence ratio |
| --- | --- |
| ATTTGAACGT | 0.966 ± 0.085 |
| ATTTGAATA | 0.984 ± 0.022 |
| ATTTGACTTA | 1.03 ± 0.015 |
| ATTTGAGAGC | 0.987 ± 0.017 |
| ATTTGAGCAG | 1.01 ± 0.011 |
| ATTTGATGAG | 0.987 ± 0.045 |
| ATTTGCAACT | 0.994 ± 0.026 |
| ATTTGCGATT | 1.03 ± 0.019 |
| ATTTGCGTTC | 1.01 ± 0.056 |
| ATTTGCTTGT | 1.01 ± 0.021 |
| ATTTGGAAGA | 1.01 ± 0.0048 |
| ATTTGGAAGT | 1.02 ± 0.018 |
| ATTTGGACGG | 0.948 ± 0.026 |
| ATTTGGATAA | 0.9893 ± 0.0066 |
| ATTTGGATGT | 1 ± 0.026 |
| ATTTGGGAAG | 1.01 ± 0.021 |
| ATTTGGGCTG | 0.999 ± 0.015 |
| ATTTGGGGAG | 1.02 ± 0.048 |
| ATTTGGGGGT | 0.997 ± 0.023 |
| ATTTGGTTGG | 0.987 ± 0.044 |
| ATTTGGTTTC | 0.991 ± 0.025 |
| ATTTGTAGGT | 0.9967 ± 0.0019 |
| ATTTGTCGGC | 1.05 ± 0.051 |
| ATTTGTCGTA | 0.997 ± 0.029 |
| ATTTGTGGGA | 1 ± 0.029 |

| Sequence | switch fluorescence ratio |
| --- | --- |
| ATTTGTTACG | 1.01 ± 0.046 |
| ATTTGTTGAT | 1 ± 0.021 |
| ATTTGTTGG | 1.029 ± 0.0076 |
| ATTTGTTTCT | 0.9993 ± 0.0079 |
| ATTTGTTTTA | 1.08 ± 0.17 |
| ATTTTAAAGG | 0.977 ± 0.027 |
| ATTTTAAATG | 1.04 ± 0.03 |
| ATTTTAACGC | 1.048 ± 0.0063 |
| ATTTTAATGC | 1.018 ± 0.0019 |
| ATTTTAGAGC | 1.05 ± 0.038 |
| ATTTTAGGAC | 1.03 ± 0.025 |
| ATTTTAGGTT | 0.984 ± 0.03 |
| ATTTTATGTG | 0.991 ± 0.018 |
| ATTTTATTGT | 1 ± 0.05 |
| ATTTTCAACT | 1.03 ± 0.018 |
| ATTTTCATAC | 1.08 ± 0.026 |
| ATTTTCCTTT | 1.02 ± 0.039 |
| ATTTTCGGAT | 0.975 ± 0.01 |
| ATTTTCGTTA | 1.04 ± 0.024 |
| ATTTTGATAA | 1.02 ± 0.021 |
| ATTTTGCCGG | 0.965 ± 0.013 |
| ATTTTGGACC | 1 ± 0.021 |
| ATTTTGGGAC | 1.03 ± 0.047 |
| ATTTTGTAGT | 1.02 ± 0.029 |
| ATTTTGTCTT | 1.02 ± 0.019 |

| Sequence | switch fluorescence ratio |
| --- | --- |
| ATTTTGTGAT | 0.994 ± 0.025 |
| ATTTTGTGGA | 0.987 ± 0.015 |
| ATTTTGTTAG | 0.998 ± 0.011 |
| ATTTTGTTGT | 1.03 ± 0.048 |
| ATTTTTAACT | 0.99578 ± 0.00077 |
| ATTTTTACTC | 1.01 ± 0.029 |
| ATTTTTAGCA | 0.99765 ± 0.00045 |
| ATTTTTAGCT | 1.02 ± 0.031 |
| ATTTTTAGGG | 1.02 ± 0.033 |
| ATTTTTCCGT | 1.02 ± 0.019 |
| ATTTTTCTTC | 1.035 ± 0.0046 |
| ATTTTTGAAC | 0.99 ± 0.019 |
| ATTTTTGGTC | 0.9864 ± 0.0038 |
| ATTTTTGTGA | 0.98 ± 0.013 |
| ATTTTTTAAG | 0.9996 ± 0.0081 |
| ATTTTTTTG | 0.955 ± 0.021 |
| CAAAAAGAAT | 1.003 ± 0.0048 |
| CAAAAAGAGT | 1.014 ± 0.009 |
| CAAAAAGCAC | 1.06 ± 0.036 |
| CAAAAATTTT | 0.986 ± 0.026 |
| CAAAAGAACG | 0.975 ± 0.031 |
| CAAAAGATTC | 1.045 ± 0.0095 |
| CAAAAGTCGA | 1.04 ± 0.031 |
| CAAAATATGG | 0.984 ± 0.051 |
| CAAAATTCCG | 1.08 ± 0.017 |
